Reference: CN106589116A (INST MICROBIOLOGY CAS, dated 2017)

B1: Z5 (antibody, V domains shown)
VH: QVQLQESGHRLVKPSETLSLTCTVSGGSISSDPYLWGWIRQPPGKGLEWIGSIYHSGSAYYNPSLKSRVTLSVDTSRNQFSLKVNSVTATDTAVYYCVEVAPPEKWGRGILVTVSS
VL: QSALTQPPSASGSPGQSVTISCTGTSSDVGGYNYVSWYQQHPGKAPKLMIYAVNKRPSGVPDRFSGSKSGNTASLTVSRLQDDDEADYYCSSYGGSNNILFGGGTKLTVLG
notes: also called 克隆Z5; 人源单克隆抗体Z5
B2: Z6 (antibody, V domains shown)
VH: QVQLQESGPGLVKPSETLSLICTVSGGSISTRDYYWGWIRQTPGKGLEWIGSIYYSGGTYYSPSLKSRVTISVDTSKNQFSLKLRSVTAADTAVYYCARQWGNYFDHWGQGSLVTVSS
VL: DIVLTQSPSFLSASVGDRVTITCRASQGIDTYLAWYQQKPGKAPKLLIYGASTLQSGVPSRFSGSGSGTEFTLTISSLQPEDFATYYCQQLNNYHFTFGPGTKVDIKR
notes: also called 克隆Z6; 人源单克隆抗体Z6
B3: Z7 (antibody, V domains shown)
V domain 1: QVQLQESGPGLVKPSETLSLTCTVFGGSVNNPTNYWGWIRQSPGKGLEWIGSVYYTGINYYNPSLESRVTIAVVTSKNQFSLKLTSVTATDTAVYYCARHPRPETGYDFDYWGQGTLVTVSS
V domain 2: QSVLTQPPSVSAAPGQKVTISCSGSSSNIGNNYVSWYQQLPGTAPKLLLYDNNKRPSGTPDRFSGSKSGTSATLGIAGLQTGDEAVYHCATWDSSLSAEVFGGGTQVTVLG
notes: also called 克隆Z7; 人源单克隆抗体Z7

target: ZIKV-E蛋白 (寨卡病毒E蛋白胞外区, C端6*His, 大肠杆菌表达复性) (Zika virus, UniProt A0A024B7W1 291-699); assay: SPR, Biacore T100, antibody captured by anti-human IgG on CM5, ZIKV-E as analyte
Sequence (A0A024B7W1 291-699, tags left off): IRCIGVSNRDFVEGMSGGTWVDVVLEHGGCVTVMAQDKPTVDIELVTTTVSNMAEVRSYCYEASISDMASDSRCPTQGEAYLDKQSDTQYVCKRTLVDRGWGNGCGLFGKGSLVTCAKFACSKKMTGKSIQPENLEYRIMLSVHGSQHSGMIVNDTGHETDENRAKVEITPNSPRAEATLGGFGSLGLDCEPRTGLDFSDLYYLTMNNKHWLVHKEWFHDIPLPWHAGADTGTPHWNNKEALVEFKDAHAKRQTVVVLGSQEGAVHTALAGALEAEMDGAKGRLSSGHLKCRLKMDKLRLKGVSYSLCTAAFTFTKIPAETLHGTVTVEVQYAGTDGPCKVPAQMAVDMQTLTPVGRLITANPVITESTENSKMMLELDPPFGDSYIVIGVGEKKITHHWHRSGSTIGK

B1 and B2 are within 1.5-fold of each other in Kd: 0.0399 nM for the first, 0.0447 nM for the second.

In the case of B3, the Kd is reported as 0.2 nM.
